# Measured values from publication PMC7221964, “Comparison of Molecular Recognition of Trimethyllysine and Trimethylthialysine by Epigenetic Reader Proteins” (Molecules, 2020).
# Ends that are not written are not given here.
# T1: KDM4A tandem tudor domain (TTD) reader (human, UniProt O75164 895-1011)
# T1 construct: KDM4A, human, tandem tudor domain; also called KDM4ATTD
# T1 sequence: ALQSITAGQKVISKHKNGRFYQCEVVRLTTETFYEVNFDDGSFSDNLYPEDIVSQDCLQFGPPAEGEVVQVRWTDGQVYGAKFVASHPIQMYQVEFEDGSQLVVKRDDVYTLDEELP
# T2: TAF3 PHD reader domain (human, UniProt Q5VWG9 855-915)
# T2 sequence: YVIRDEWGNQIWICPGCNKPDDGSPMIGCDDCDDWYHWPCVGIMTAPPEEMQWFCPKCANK
# T3: SGF29 tandem tudor domain (TTD) reader (human, UniProt Q96ES7 115-293)
# T3 construct: SGF29, human, tandem tudor domain; also called SGF29TTD
# T3 sequence: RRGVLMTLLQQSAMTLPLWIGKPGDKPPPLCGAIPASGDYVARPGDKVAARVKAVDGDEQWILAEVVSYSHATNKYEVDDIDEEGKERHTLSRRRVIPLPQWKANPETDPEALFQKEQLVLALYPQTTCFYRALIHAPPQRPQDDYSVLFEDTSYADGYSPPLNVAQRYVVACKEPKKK
# T4: KDM5A PHD3 reader domain (human, UniProt P29375 1609-1659)
# T4 construct: KDM5A, human, third PHD zinc finger (PHD3)
# T4 sequence: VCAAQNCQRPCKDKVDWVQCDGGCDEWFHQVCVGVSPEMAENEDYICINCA
# B1: 10-mer histone H3 peptide bearing trimethyllysine at position 4 (H3K4me3) (peptide)
# peptide: ARTKQTARKS
# modifications: trimethyllysine (Kme3) at position 4
# notes: histone H3, residues 1-10, printed as ART(Kme3/KCme3)QTARKS; also called 1–10 H3K4me3; source: synthetic peptide (solid-phase peptide synthesis, preparative HPLC)
# B2: 10-mer histone H3 peptide bearing trimethylthialysine at position 4 (H3KC4me3) (peptide)
# peptide: ARTCQTARKS
# modifications: not fully specified (residue 4)
# notes: histone H3, residues 1-10, printed as ART(Kme3/KCme3)QTARKS; position 4 is a cysteine alkylated to trimethylthialysine; The letter C at position 4 stands for the alkylated cysteine (trimethylthialysine), not a free cysteine; also called 1–10 H3KC4me3
# How the values were obtained:
# Test in all cases: ITC; 19 injections of histone peptide (0.3–1.2 mM) into reader protein (22–100 µM), 298.15 K, same buffer as used in size exclusion chromatography, one-site fit, 3–5 repeats
# Conditions in all cases: both partners purified
# [1] = molecular target: BPTF PHD reader domain (human, UniProt Q12830 2865-3033)
# [2] = molecular target: T1, KDM4A tandem tudor domain (TTD) reader
# [3] = molecular target: T2, TAF3 PHD reader domain
# [4] = molecular target: T3, SGF29 tandem tudor domain (TTD) reader
# [5] = molecular target: T4, KDM5A PHD3 reader domain
Binder,dH [1] [kcal/mol],Kd [2] [nM],dH [2] [kcal/mol],Kd [3] [nM],dH [3] [kcal/mol],Kd [4] [nM],dH [4] [kcal/mol],Kd [5] [nM],dH [5] [kcal/mol],Kd [1] [nM]
B1,-12.4 ± 0.1,6600 ± 800,-13 ± 0.2,84 ± 12,-10.7 ± 0.1,2600 ± 300,-8 ± 0.1,71 ± 8,-10.7 ± 0.1,
B2,-9 ± 0.1,3100 ± 600,-14.8 ± 0.2,42 ± 7,-10.8 ± 0.1,6100 ± 700,-5.8 ± 0.1,150 ± 200,-9.6 ± 0.1,3800 ± 500
